Source: US20240287172A1 (SCIRHOM, published 2024)

Target: T1, hiR2-FL-G563D-T7 (human, UniProt Q6PJF5 1-856)
T1 sequence: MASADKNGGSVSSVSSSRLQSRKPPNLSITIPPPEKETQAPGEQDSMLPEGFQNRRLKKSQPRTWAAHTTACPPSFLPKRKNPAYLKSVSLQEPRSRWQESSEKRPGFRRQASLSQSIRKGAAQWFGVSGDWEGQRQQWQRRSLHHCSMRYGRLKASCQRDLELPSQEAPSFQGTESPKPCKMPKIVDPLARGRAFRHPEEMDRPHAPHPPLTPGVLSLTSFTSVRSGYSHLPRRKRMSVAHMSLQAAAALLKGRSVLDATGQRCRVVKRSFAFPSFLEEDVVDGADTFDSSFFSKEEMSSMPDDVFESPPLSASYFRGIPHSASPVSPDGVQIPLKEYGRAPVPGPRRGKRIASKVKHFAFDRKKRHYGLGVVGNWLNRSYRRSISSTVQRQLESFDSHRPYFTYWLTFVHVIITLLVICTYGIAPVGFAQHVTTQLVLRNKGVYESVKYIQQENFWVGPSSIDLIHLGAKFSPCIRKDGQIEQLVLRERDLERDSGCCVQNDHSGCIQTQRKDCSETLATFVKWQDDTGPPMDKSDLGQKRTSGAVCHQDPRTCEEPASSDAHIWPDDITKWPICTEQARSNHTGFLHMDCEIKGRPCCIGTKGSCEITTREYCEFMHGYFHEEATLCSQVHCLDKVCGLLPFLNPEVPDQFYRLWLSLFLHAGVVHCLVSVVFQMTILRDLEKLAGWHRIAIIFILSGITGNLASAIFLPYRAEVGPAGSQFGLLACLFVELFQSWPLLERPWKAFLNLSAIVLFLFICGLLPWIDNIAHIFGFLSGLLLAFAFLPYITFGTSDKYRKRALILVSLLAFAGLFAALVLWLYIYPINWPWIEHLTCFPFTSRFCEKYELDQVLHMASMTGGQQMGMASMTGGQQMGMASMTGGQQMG
Experiment: FACS, MEF-DKO cells, 3 µg/ml
Outline: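 MEF-DKO cells expressing T7-tagged full-length hiR2 point mutants were stained on ice for 1 h with purified antibodies at 3 μg/ml in FACS buffer. Detection used PE-conjugated goat anti-mouse IgG F(ab′)2 (1:100, 1 h on ice), read by flow cytometry; buffer-only wells served as controls.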

B1: antibody 50 (antibody, V domains shown)
VH: QVQLQQSGAELVRPGASVKVSCKASGYAFSNYLIEWVKQRPGQGLEWIGVINPGSGFTKYNEKFKGKATLTADKSSSTAYMQLSSLTSEDSAVYFCARGLYRAMDYWGQGTSVTVSS
VL: DIQMTQSPASQSASLGESVTITCLASQTIGTWLAWYQQKPGKSPQLLIYAAASLADGVPSRFSGGGSGTKFSFKISSLQAEDFVNYYCQQIYSTPYTFGGGTKLEIK
notes: mouse IgG, kappa light chain; also called clone #50; purified antibody 50
  loss of binding vs wild type: ≥ 30%
